The values below come from US20230106715A1 (BIOSION, published 2023).

In assay [1] the target is T1, mouse Siglec15-his protein (mouse).
T1 construct: In house made
T1 chain: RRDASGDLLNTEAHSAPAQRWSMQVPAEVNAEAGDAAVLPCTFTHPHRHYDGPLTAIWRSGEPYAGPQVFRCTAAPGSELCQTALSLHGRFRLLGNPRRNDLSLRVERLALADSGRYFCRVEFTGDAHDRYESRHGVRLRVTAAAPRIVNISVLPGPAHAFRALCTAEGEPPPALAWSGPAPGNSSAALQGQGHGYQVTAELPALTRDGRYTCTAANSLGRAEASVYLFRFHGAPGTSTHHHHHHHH
The assay can be described thus: indirect ELISA on coated mouse Siglec15-his. The protocol: The anti-Siglec15 antibodies' cross-reactions to cynomolgus or mouse Siglec15 proteins were measured. Briefly, 96-well micro plates were coated with 100 μl of 2 μg/ml cynomolgus Siglec15-his protein (in house made with SEQ ID NO: 21), or 2 μg/ml mouse Siglec15-his protein (in house made with SEQ ID NO: 22) in carbonate/bicarbonate buffer (pH 9.6) for 2 hours at 37° C. ELISA plates were washed once with wash buffer (PBS+0.05% v/v Tween-20, PBST) and then blocked with 200 μl/well blocking buffer (5% w/v non-fatty milk in PBST) overnight at 4° C. Plates were washed 4 times and incubated with 100 μl serially diluted anti-Siglec15 antibodies of the disclosure or controls (starting at 66.7 nM, 5-fold serial dilution in PBST with 2.5% w/v non-fatty milk) for 40 minutes at 37° C. […] The reaction was stopped 4 minutes later at room temperature with 50 μl 1M H₂SO₄, and the absorbance of each well was read on a microplate reader using dual wavelength mode with 450 nm for TMB and 630 nm as the reference wavelength, then the OD (450-630) values were plotted against antibody concentration. Data was analyzed using Graphpad Prism software and EC₅₀ values were reported.

The target in assay [2] is T2, human Siglec15-Fc protein (human).
T2 construct: In house made; also called recombinant human Siglec15 protein with human IgG1 Fc at the C-terminus
The assay can be described thus: competitive ELISA: coated human Siglec15-Fc, blocked ligand biotin-labeled human LRRC4C-Fc. The protocol:
Serially diluted anti-Siglec15 antibodies or the controls (starting at 66.67 nM with a 5-fold serial dilution) in PBST with 2.5% w/v non-fatty milk were added to the Siglec15-Fc bound plates, 100 μl per well, and incubated with the human Siglec15-Fc protein at 37° C. for 40 minutes. Plates were washed 4 times again using wash buffer, then added and incubated for 40 minutes at 37° C. with 100 μl/well 290 ng/ml biotin-labeled human LRRC4C-Fc protein (prepared in-house with SEQ ID NO: 23). Plates were washed again using wash buffer. Thereafter, the plates were added with 100 μl/well streptavidin conjugated HRP (1:5000 dilution in PBST buffer, Jackson Immunoresearch, Cat #016-030-084) and incubated for 40 minutes at 37° C. Plates were washed again using wash buffer. Finally, TMB was added and the reaction was stopped using 1M H₂SO₄, and the absorbance of each well was read on a microplate reader using dual wavelength mode with 450 nm for TMB and 630 nm as the reference wavelength, then the OD (450-630) values were plotted against antibody concentration. Data was analyzed using Graphpad Prism software and IC₅₀ values were reported.
In general terms: An ELISA detects its analyte on a solid surface through an enzyme-linked reagent.
Target sequence in this assay (chain, as listed by the source limits assumed): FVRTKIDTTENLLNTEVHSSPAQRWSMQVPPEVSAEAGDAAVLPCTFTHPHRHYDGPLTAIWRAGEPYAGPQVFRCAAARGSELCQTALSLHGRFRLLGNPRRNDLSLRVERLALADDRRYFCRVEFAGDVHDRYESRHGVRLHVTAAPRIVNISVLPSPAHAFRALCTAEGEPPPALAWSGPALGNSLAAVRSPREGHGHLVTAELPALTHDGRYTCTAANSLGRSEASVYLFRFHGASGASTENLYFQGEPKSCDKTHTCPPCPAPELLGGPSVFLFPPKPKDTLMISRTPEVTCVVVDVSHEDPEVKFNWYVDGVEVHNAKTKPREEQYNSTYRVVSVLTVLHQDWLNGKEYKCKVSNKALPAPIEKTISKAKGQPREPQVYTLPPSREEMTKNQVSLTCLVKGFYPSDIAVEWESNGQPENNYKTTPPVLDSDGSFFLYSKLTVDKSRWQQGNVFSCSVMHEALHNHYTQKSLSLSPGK

Assay [3] has as its target T2, human Siglec15-Fc protein. The assay can be described thus: competitive ELISA: biotin-labeled human Siglec15-Fc in solution, competitor coated benchmark. The method, then: The abilities of the anti-Siglec15 antibodies of the disclosure to block benchmark-human Siglec15 binding were measured in a competitive ELISA assay. Briefly, the benchmark was coated on 96-well micro plates at 2 μg/mL in PBS, 100 μl per well, and incubated for 2 hours at 37° C. Then plates were washed once with wash buffer, and blocked with 5% w/v non-fatty milk in PBST overnight at 4° C. The next day, the anti-Siglec15 antibodies of the disclosure or controls were diluted with biotin labeled human Siglec15-Fc protein (prepared in-house with SEQ ID NO: 19, 37 ng/ml in PBST with 2.5% w/v non-fatty milk), starting at 80 nM with a 4-fold serial dilution, and incubated at room temperature for 40 minutes. After plate washing 4 times, the antibody/Siglec15-Fc mixtures were added to benchmark coated plates, 100 μl per well. After incubation at 37° C. for 40 minutes, plates were washed 4 times again using wash buffer. Then the plates were added and incubated with 100 μl/well streptavidin conjugated HRP for 40 minutes at 37° C. […] Finally, TMB was added and the reaction was stopped using 1M H₂SO₄, and the absorbance of each well was read on a microplate reader using dual wavelength mode with 450 nm for TMB and 630 nm as the reference wavelength, then the OD (450-630) values were plotted against antibody concentration. Data was analyzed using Graphpad Prism software and IC₅₀ values were reported.

B1: anti-Siglec15 benchmark (ch5G12) (antibody, human IgG1, kappa, V domains shown)
VH: QVQLQQPGAELVKPGASVKMSCKASGYTFTSYWITWVIQRPGQGLEWIGDIYCGSDTMHYNEKFKNKATLTVDTSSSTAYMQLSSLTSEDSAVYYCARWWDYGSSYDYFDYWGQGTTLTVSS
VL: DIKMTQSPSSMYASLGERVTITCKASQDINSYLSWFQQKPGKSPKTLIYRANRLVDGVPSRFSGSGSGQDYSLTISSLEYEDMGIYYCLQYDEFPYTFGGGTKLEIKR
notes: ch5G12 (US 20190202912A1); also called BM; Siglec15-ch5G9
On to B1, for which, in assay [1], the EC50 (commonly the midpoint of the concentration-response curve) is 0.402 nM. Further, the IC50 – broadly, the midpoint of a concentration-inhibition curve – in assay [2] worked out at 0.792 nM; in assay [3] it was 0.338 nM.
